Measurements: the supplement of paper PMC10567573

B1: ZNF649 (parent)
chain: LTEHKRIHTGKKPHVCSLCGKAFY
B2: TMEM175 (parent)
chain: ALLHQAETLQPSVWFGGREHVLMF

Variants of: B1
Assay: protein stability index of a GFP-peptide fusion (GPS, HEK-293T) (PSI 1-6); higher = more stable
Conditions: c terminus: a fixed tail appended
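Also: lentivirally expressed fusions sorted by FACS into six bins by GFP to DsRed ratio, PSI derived from sequencing read proportions per bin multiplied by bin number.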

Protein stability index: each site, then its substitutions
I7: A 2.52
H4: T 2.52 | P 2.43 | Y 2.36 | Q 3.31 | A 2.22 | C 2.78 | S 2.58 | M 2.47 | F 2.33 | D 2.9 | L 2.11 | K 2.28 | R 2.24 | E 3.02 | W 2.78 | G 2.4 | V 1.94 | I 2.19 | N 2.84
K5: P 1.15 | I 3 | V 2.48 | E 3.03 | C 4.3 | A 3.06 | W 3.18 | L 2.23 | S 2.3 | M 2.79 | D 3.35 | N 3.39 | Q 2.79 | T 2.88 | F 2.25 | R 2.63
R6: Q 4.11 | S 2.25 | L 2.14 | I 2.71 | E 3.42 | T 3.08 | H 3.63 | D 2.93 | N 2.58 | Y 2.5 | G 1.94 | F 2.33 | K 2.33 | C 4.05 | W 2.75
L1: W 2.17 | N 2.81 | V 2.57 | A 3.24 | E 2.87 | M 2.3 | R 3.27 | D 3.45 | K 3.22 | C 3.22 | Q 3.02 | F 2.18 | G 3.19 | I 2.18 | T 2.58 | P 3.05 | H 2.97 | Y 3.44 | S 2.81
T2: S 3 | R 2.78 | I 2.04 | G 2.25 | F 1.7 | P 2.32 | N 2.32 | L 2.09 | Y 2.31 | V 2.27 | A 2.57 | D 3.12 | W 2 | E 3.01 | Q 2.58 | C 3.94 | K 2.26 | M 2.16 | H 2.46
E3: N 2.22 | M 1.89 | L 1.15 | D 2.71 | Y 2.89 | S 2.59 | C 2.38 | A 2.47 | Q 2.32 | K 2.93 | T 1.67 | R 1.86 | W 1.71 | P 2.45 | G 1.79 | H 1.68 | I 1.96 | V 2.23 | F 2.31

Variants of: B2
Assay: as above
Conditions: c terminus: a fixed tail appended

Protein stability index: each site, then its substitutions
Q10: S 2.2 | P 2.16 | I 2.49 | V 1.06 | W 1.51
V21: N 2.02 | Q 1.69 | M 2.55 | A 1.42 | E 1.53 | Y 1.7 | I 1.53 | W 1.57 | D 1.77 | R 2.18 | L 2.41 | K 2.1 | G 2.89
R18: T 2.46 | N 3.11 | F 2.29 | M 2.03 | C 3.1 | K 3.39 | E 1.76 | H 2.17 | L 3.03 | I 3.13 | A 2.59 | Q 2.33 | V 1.44 | G 2.08
F15: M 1.82 | A 1.88 | T 1.85 | Q 1.27 | S 1.57 | N 1.65 | Y 2.4 | G 2.22 | R 2.02 | E 1.57
Q5: C 1.99 | L 3.8 | F 1.43 | P 2.78 | N 2.68 | E 1.07 | R 2.33 | S 2.72
G17: N 2.51 | H 2.45 | E 1 | K 1.66 | Y 1.58 | Q 1.4 | I 2.68 | D 1.27
F24: D 2.69 | M 3.11 | N 3.21 | G 1.47 | K 2.5 | H 2.15 | Q 2.4 | R 2.56 | P 1.54 | L 2.21
G16: S 2.06 | T 1.47 | M 2.69 | N 2.41 | Y 3.05 | D 2.04 | H 2.1 | C 2.98
T8: S 1.65 | Y 2.91 | R 1.26 | K 3.25 | V 1.01 | F 3.68 | L 4.17 | E 2.03 | N 1.63 | D 1.83 | H 2.95
A6: D 2.55 | E 1.54 | P 2.43 | S 1.68 | H 2.17 | K 1.68 | Y 2.91 | T 1.83 | F 3.21 | C 3.75
S12: W 2.82 | E 2.31 | I 3.85 | Q 1.82 | P 4.3 | H 1.15
P11: D 2.79 | Q 1.38 | H 1.77 | K 2.59 | G 1.24 | A 1.78
L3: H 1.57 | T 2.37 | G 2.83 | R 1.62 | Q 1.54 | Y 3.46 | V 1.31 | K 1.71 | A 1.76 | S 2.25 | C 2.26
H4: S 1.99 | G 1.75 | Y 2.17 | A 1.9 | D 1.89 | F 3.14 | C 3.01 | W 3.3 | P 1.41 | N 2.84
L9: R 2.19 | N 1.97 | G 2.85 | S 1.36 | E 1.16 | P 2.11 | Q 3.27 | C 3.64 | A 2.42 | W 1.7
L22: P 2.05 | K 1.94 | T 1.78 | C 3.13 | A 1.1 | G 1.77 | S 2.06 | E 2.09 | V 3.06 | N 2.19 | H 2.68
A1: T 2.38 | C 1.71 | E 1.02 | D 1.48 | P 1.69 | G 2.95 | L 2.58 | I 3.59 | H 2.14 | K 2.35 | Q 2.96
E7: M 3.19 | S 2.22 | W 3.4 | G 3.88 | F 2.64 | H 3 | Q 2.71 | Y 1.78 | N 1.88 | P 1.96
E19: W 2.92 | F 1.97 | P 2.37 | Y 1.81 | C 3.88 | H 2.74 | N 1.42
H20: R 4.2 | T 3.65 | N 2.48 | P 3.07 | Q 1.44 | I 2.97
W14: H 2.31 | E 1.38 | I 2.22 | D 1.74 | L 1.73 | M 2.08 | V 1.91 | G 2.64 | N 1.3 | R 2.65 | S 1.55
M23: G 3.51 | P 1.35 | K 1.74 | A 1.2 | V 1.27 | N 1.58 | Q 1.84 | R 1.03 | E 3.67 | H 2.39 | I 2.59 | L 3.66
L2: S 2.83 | I 3.26 | D 2.01 | N 1.06 | H 1.48 | C 3.82 | E 1.93 | Q 1.42 | V 1.3 | M 1.93 | A 2.96
V13: H 2.22 | N 2.28 | E 1.86 | Y 1.69 | C 3.13 | A 3.02 | S 2.73
